The experiment has as its target T1, recombinant human laminin-511 (human, UniProt O15230 36-3695; P07942 22-1786; P11047 34-1609).
T1 construct: the FLAG tag stands just after the N-terminal signal peptide cleavage site; αβγ heterotrimer; also called LM511; not shown: FLAG, N-terminal, kept; copies: + +
The experiment in a line: ELISA; solid-phase binding assay: 96-well plates coated with laminins at 5 nM overnight at 4°C, blocked with 3% BSA; 30 nM integrins for 3 h at room temperature with 1 mM Mn2+; bound integrins detected by biotinylated anti-Velcro pAb and HRP-streptavidin (absorbance at 490 nm). The following applies: both partners purified. On the technique in general: An ELISA detects its analyte on a solid surface through an enzyme-linked reagent.

The record followed here is paper PMC6238537 (Life Science Alliance, 2018).

B1: recombinant integrin αvβ3 (receptor, human)
chain 1: FNLDVDSPAEYSGPEGSYFGFAVDFFVPSASSRMFLLVGAPKANTTQPGIVEGGQVLKCDWSSTRRCQPIEFDATGNRDYAKDDPLEFKSHQWFGASVRSKQDKILACAPLYHWRTEMKQEREPVGTCFLQDGTKTVEYAPCRSQDIDADGQGFCQGGFSIDFTKADRVLLGGPGSFYWQGQLISDQVAEIVSKYDPNVYSIKYNNQLATRTAQAIFDDSYLGYSVAVGDFNGDGIDDFVSGVPRAARTLGMVYIYDGKNMSSLYNFTGEQMAAYFGFSVAATDINGDDYADVFIGAPLFMDRGSDGKLQEVGQVSVSLQRASGDFQTTKLNGFEVFARFGSAIAPLGDLDQDGFNDIAIAAPYGGEDKKGIVYIFNGRSTGLNAVPSQILEGQWAARSMPPSFGYSMKGATDIDKNGYPDLIVGAFGVDRAILYRARPVITVNAGLEVYPSILNQDNKTCSLPGTALKVSCFNVRFCLKADGKGVLPRKLNFQVELLLDKLKQKGAIRRALFLYSRSPSHSKNMTISRGGLMQCEELIAYLRDESEFRDKLTPITIFMEYRLDYRTAADTTGLQPILNQFTPANISRQAHILLDCGEDNVCKPKLEVSVDSDQKKIYIGDDNPLTLIVKAQNQGEGAYEAELIVSIPLQADFIGVVRNNEALARLSCAFKTENQTRQVVCDLGNPMKAGTQLLAGLRFSVHQQSEMDTSVKFDLQIQSSNLFDKVSPVVSHKVDLAVLAAVEIRGVSSPDHVFLPIPNWEHKENPETEEDVGPVVQHIYELRNNGPSSFSKAMLHLQWPYKYNNNTLLYILHYDIDGPMNCTSDMEINPLRIKISSLQTTEKNDTVAGQGERDHLITKRDLALSEGDIHTLGCGVAQCLKIVCQVGRLDRGKSAILYVKSLLWTETFMNKENQNHSYSLKSSASFNVIEFPYKNLPIEDITNSTLVTTNVTWGIQPAPMPV
chain 2: GPNICTTRGVSSCQQCLAVSPMCAWCSDEALPLGSPRCDLKENLLKDNCAPESIEFPVSEARVLEDRPLSDKGSGDSSQVTQVSPQRIALRLRPDDSKNFSIQVRQVEDYPVDIYYLMDLSYSMKDDLWSIQNLGTKLATQMRKLTSNLRIGFGAFVDKPVSPYMYISPPEALENPCYDMKTTCLPMFGYKHVLTLTDQVTRFNEEVKKQSVSRNRDAPEGGFDAIMQATVCDEKIGWRNDASHLLVFTTDAKTHIALDGRLAGIVQPNDGQCHVGSDNHYSASTTMDYPSLGLMTEKLSQKNINLIFAVTENVVNLYQNYSELIPGTTVGVLSMDSSNVLQLIVDAYGKIRSKVELEVRDLPEELSLSFNATCLNNEVIPGLKSCMGLKIGDTVSFSIEAKVRGCPQEKEKSFTIKPVGFKDSLIVQVTFDCDCACQAQAEPNSHRCNNGNGTFECGVCRCGPGWLGSQCECSEEDYRPSQQDECSPREGQPVCSQRGECLCGQCVCHSSDFGKITGKYCECDDFSCVRYKGEMCSGHGQCSCGDCLCDSDWTGYYCNCTTRTDTCMSSNGLLCSGRGKCECGSCVCIQPGSYGDTCEKCPTCPDACTFKKECVECKKFDRGALHDENTCNRYCRDEIESVKELKDTGKDAVNCTYKNEDDCVVRFQYYEDSSGKSILYVVEEPECPKGPD
notes: integrin αv subunit, human, extracellular domain; integrin β3 subunit, human, extracellular domain; truncated soluble heterodimer; vectors from Dr. Junichi Takagi (Takagi et al, 2001, 2002a, b); Purification on ANTI-FLAG gel implies a FLAG tag
Regarding B1, the binding result was “binds”.

B2: recombinant integrin αvβ5 (receptor, human)
chain 1: FNLDVDSPAEYSGPEGSYFGFAVDFFVPSASSRMFLLVGAPKANTTQPGIVEGGQVLKCDWSSTRRCQPIEFDATGNRDYAKDDPLEFKSHQWFGASVRSKQDKILACAPLYHWRTEMKQEREPVGTCFLQDGTKTVEYAPCRSQDIDADGQGFCQGGFSIDFTKADRVLLGGPGSFYWQGQLISDQVAEIVSKYDPNVYSIKYNNQLATRTAQAIFDDSYLGYSVAVGDFNGDGIDDFVSGVPRAARTLGMVYIYDGKNMSSLYNFTGEQMAAYFGFSVAATDINGDDYADVFIGAPLFMDRGSDGKLQEVGQVSVSLQRASGDFQTTKLNGFEVFARFGSAIAPLGDLDQDGFNDIAIAAPYGGEDKKGIVYIFNGRSTGLNAVPSQILEGQWAARSMPPSFGYSMKGATDIDKNGYPDLIVGAFGVDRAILYRARPVITVNAGLEVYPSILNQDNKTCSLPGTALKVSCFNVRFCLKADGKGVLPRKLNFQVELLLDKLKQKGAIRRALFLYSRSPSHSKNMTISRGGLMQCEELIAYLRDESEFRDKLTPITIFMEYRLDYRTAADTTGLQPILNQFTPANISRQAHILLDCGEDNVCKPKLEVSVDSDQKKIYIGDDNPLTLIVKAQNQGEGAYEAELIVSIPLQADFIGVVRNNEALARLSCAFKTENQTRQVVCDLGNPMKAGTQLLAGLRFSVHQQSEMDTSVKFDLQIQSSNLFDKVSPVVSHKVDLAVLAAVEIRGVSSPDHVFLPIPNWEHKENPETEEDVGPVVQHIYELRNNGPSSFSKAMLHLQWPYKYNNNTLLYILHYDIDGPMNCTSDMEINPLRIKISSLQTTEKNDTVAGQGERDHLITKRDLALSEGDIHTLGCGVAQCLKIVCQVGRLDRGKSAILYVKSLLWTETFMNKENQNHSYSLKSSASFNVIEFPYKNLPIEDITNSTLVTTNVTWGIQPAPMPV
chain 2: GLNICTSGSATSCEECLLIHPKCAWCSKEDFGSPRSITSRCDLRANLVKNGCGGEIESPASSFHVLRSLPLSSKGSGSAGWDVIQMTPQEIAVNLRPGDKTTFQLQVRQVEDYPVDLYYLMDLSLSMKDDLDNIRSLGTKLAEEMRKLTSNFRLGFGSFVDKDISPFSYTAPRYQTNPCIGYKLFPNCVPSFGFRHLLPLTDRVDSFNEEVRKQRVSRNRDAPEGGFDAVLQAAVCKEKIGWRKDALHLLVFTTDDVPHIALDGKLGGLVQPHDGQCHLNEANEYTASNQMDYPSLALLGEKLAENNINLIFAVTKNHYMLYKNFTALIPGTTVEILDGDSKNIIQLIINAYNSIRSKVELSVWDQPEDLNLFFTATCQDGVSYPGQRKCEGLKIGDTASFEVSLEARSCPSRHTEHVFALRPVGFRDSLEVGVTYNCTCGCSVGLEPNSARCNGSGTYVCGLCECSPGYLGTRCECQDGENQSVYQNLCREAEGKPLCSGRGDCSCNQCSCFESEFGKIYGPFCECDNFSCARNKGVLCSGHGECHCGECKCHAGYIGDNCNCSTDISTCRGRDGQICSERGHCLCGQCQCTEPGAFGEMCEKCPTCPDACSTKRDCVECLLLHSGKPDNQTCHSLCRDEVITWVDTIVKDDQEAVLCFYKTAKDCVMMFTYVELPSGKSNLTVLREPECGNTPN
notes: integrin αv subunit, human, extracellular domain; integrin β5 subunit, human, extracellular domain; cDNA amplified from RNA of T98G human glioblastoma cells; truncated soluble heterodimer; Purification on ANTI-FLAG gel implies a FLAG tag
In the case of B2, the binding result is listed as “binds”.
